Experimental data as given in article PMC10359603.

Assays:
[1] = target: 6H-MBP-FseA (Mesorhizobium japonicum R7A); assay: SEC; HiLoad 16/600 Superdex 200; 50 mM Na2HPO4/NaH2PO4 pH 6.35, 10% glycerol, 500 mM NaCl; apparent mass from the elution volume
[2] = target: QseM (wild type, bacterial two-hybrid); assay: bacterial two-hybrid
[3] = tested on: 6H-MBP-FseA (Mesorhizobium japonicum R7A (ICEMlSymR7A)?); assay: EMSA; details: dimer concentration 4-130 nM; Hill slope fit, n=3; FseA EMSA: 10 mM Na phosphate pH 6.35, 220 mM NaCl, 6% glycerol, 1 mM DTT, 0.01 ug/ul poly(dI.dC), 0.1 ug/ul herring sperm DNA, 0.1-0.19 ug/ul BSA, 5 nM probe …
[4] = target: FseA_(1–55) (Mesorhizobium japonicum R7A); assay: two-hybrid; Bacteriomatch II bacterial two-hybrid in E. coli; growth on selective medium with 5 mM 3-amino-1,2,4-triazole; strength as CFU/ml on selective against non-selective medium
[5] = target: FseA (wild type, bacterial two-hybrid); assay: bacterial two-hybrid

percent of parent (% of wild-type FseA) [2]	percent of parent (% of wild-type QseM) [5]	Substance	also measured
–	–	6H-MBP-FseA (natural protein)	stoichiometry N [1]: 2
> 90	–	FseA (wild type, bacterial two-hybrid) D210A	–
> 90	–	FseA (wild type, bacterial two-hybrid) G214	–
> 90	–	FseA (wild type, bacterial two-hybrid) R36A	–
< 10	–	FseA (wild type, bacterial two-hybrid) R37A	–
> 90	–	FseA (wild type, bacterial two-hybrid) R219A	–
> 90	–	FseA (wild type, bacterial two-hybrid) W32A	–
–	–	PrdfS FseA-box probe	Kd [3]: 30 nM
–	–	QseM (wild type, bacterial two-hybrid) (natural protein)	interaction strength relative to wild-type FseA [4]: 40%
–	< 10	QseM (wild type, bacterial two-hybrid) D31A	–
–	> 90	QseM (wild type, bacterial two-hybrid) E56A	–
–	> 90	QseM (wild type, bacterial two-hybrid) H22A	–
–	< 10	QseM (wild type, bacterial two-hybrid) L29A	–
–	> 90	QseM (wild type, bacterial two-hybrid) R28A	–
–	> 90	QseM (wild type, bacterial two-hybrid) R57A	–
–	< 10	QseM (wild type, bacterial two-hybrid) R68A	–
–	< 10	QseM (wild type, bacterial two-hybrid) W71A	–
